Columns and labels:
huNav1.7α + β1 [1] = biological target: huNav1.7α + β1 (human); assay: cell-based or functional assay
rhNav1.7α + β1-β2-β3 [2] = biological target: rhNav1.7α + β1-β2-β3 (rhesus monkey); assay: cell-based or functional assay
rhNav1.7α + β1-β2-β3 [3] = biological target: T1, rhNav1.7α + β1-β2-β3 (rhesus monkey); assay: competition FACS vs EC25 of 275B05(N93R), CHO FlpIn, + 50 µM human SA
T1 construct: also called rhNav1.7-beta1-beta2-beta3; rhNav1.7-β1-β2-β3

huNav1.7α + β1-β2-β3 [4] = biological target: T2, huNav1.7α + β1-β2-β3 (human, UniProt Q15858 1-1988; A5A6L6 19-218; O60939 30-215; Q2KI11 23-215); assay: as above
T2 construct: also called huNav1.7-beta1-beta2-beta3; huNav1.7-β1-β2-β3

rhNav1.7α + β1-β2-β3 [5] = biological target: T1, rhNav1.7α + β1-β2-β3; assay: competition FACS IC50 with 50 µM human SA against without
huNav1.7α + β1-β2-β3 [6] = biological target: T2, huNav1.7α + β1-β2-β3; assay: as above
rhNav1.7α + β1-β2-β3 [7] = biological target: T1, rhNav1.7α + β1-β2-β3; assay: competition FACS vs EC25 of 275B05(N93R), CHO FlpIn
huNav1.7α + β1-β2-β3 [8] = biological target: T2, huNav1.7α + β1-β2-β3; assay: as above
huNav1.7α = biological target: T3, huNav1.7α (human, UniProt Q15858 1-1988); assay: binding FACS, HEK
T3 construct: HEK cells expressing the α subunit without β subunits; also called huNav1.7 (alpha-subunit); Human Nav1.7α

huNav1.7α + β1 [9] = biological target: T4, huNav1.7α + β1 (human); assay: binding FACS, HEK
T4 construct: HEK293 cells; also called huNav1.7-beta1; huNav1.7-β1

huNav1.7α + β1 [10] = biological target: T4, huNav1.7α + β1; assay: cell-based or functional assay; remark: listed apart in the source
rhNav1.7α + β1-β2-β3 [11] = biological target: T1, rhNav1.7α + β1-β2-β3; assay: cell-based or functional assay; remark: listed apart in the source
rhNav1.7α+β1-β2-β3 = biological target: T5, rhNav1.7α+β1-β2-β3 (rhesus monkey α subunit with human β …); assay: binding FACS
T5 construct: P2A cleaves it into α, β1, β2, β3; also called rhNav1.7-beta1-beta2-beta3

huNav1.7α+β1-β2-β3 = biological target: T6, huNav1.7α+β1-β2-β3 (human, UniProt Q15858 1-1988; Q07699 19-218; O60939 30-215; Q9NY72 23-215); assay: binding FACS
T6 construct: 5N11S variant; also called huNav1.7-beta1-beta2-beta3; huNav1.7α+Navβ1-Navβ2-Navβ3

huNav1.7α + β1-β2-β3 [12] = biological target: T7, huNav1.7α + β1-β2-β3 (human, UniProt Q15858 1-1988; A5A6L6 19-218; O60939 30-215; Q2KI11 23-215); assay: competition FACS, HEK FlpIn cells, vs EC30 of CMYC3-F0103265B04
T7 construct: Cell line (CHO FlpIn, HEK FlpIn, transient HEK293T) is named under assay; also called huNav1.7-beta1-beta2-beta3; human Nav1.7α with Navβ1, Navβ2 and Navβ3
Method in brief: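 HEK FlpIn cells expressing huNav1.7α+β1-β2-β3 (1×10⁵/well) were incubated 1.5 h at 4 °C with a dilution series of purified ISVD plus CMYC3-tagged F0103265B04 at EC30-equivalent concentration in PBS, 2% FBS, 0.05% NaN₃. Flow cytometry read-out with 5 nM TOPRO3 to exclude dead cells.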

huNav157chim6 + β1-β2-β3 = biological target: T8, huNav157chim6 + β1-β2-β3 (human); assay: FACS, transiently transfected HEK293T cells
T8 construct: DI, DII, DIV from Nav1.5α, DIII from Nav1.7α; also called huNav157 chimera 6
Description: (§1) Binding of the ISVDs to cell-expressed Nav1.7α was detected via murine anti-Flag (Sigma, catalog #F1804). Briefly, cells were resuspended in FACS buffer (PBS, 10% FBS, NaN₃) and transferred to a 96-well V-bottom plate at 1×10^5 cells/well. Purified FLAG3-tagged ISVD was diluted in FACS buffer and added to the cells for 30 minutes at 4° C. […] Prior to the read-out, the samples were resuspended in 1 μg/mL propidium iodide (Sigma, catalog #P4170) to exclude dead cells. Between each step, the cells were centrifuged for 5 minutes at 200 grams and washed with 100 μL/well FACS buffer.
(§2) FACS binding studies (as described above) were performed on HEK293T cells transiently transfected with expression vectors encoding a huNav1.7α or rhNav1.7α fused at the C-terminus via a P2A viral peptide linker to a single polypeptide encoding sodium channel beta subunits Navβ1, Navβ2, and Navβ3 in tandem (β1-β2-β3; SEQ ID NO:21). Similarly, HEK293T cells transiently transfected with expression vectors encoding chimeric variants of huNav1.7α in which individual domains are replaced by their huNav1.5α counterparts (chimeras 1 to 4 in FIG. 16) or with chimeric variants of huNav1.5 in which individual domains are replaced by their huNav1.7α counterparts (chimeras 5 to 8 in FIG. 16) fused at the C-terminus via a P2A viral peptide linker to β1-β2-β3 as above. See Table 7 for description of the expression vectors encoding the chimeras, Table 21 and FIG. 16).

huNav157chim5 + β1-β2-β3 = biological target: T9, huNav157chim5 + β1-β2-β3 (human); assay: FACS, transiently transfected HEK293T cells
T9 construct: DI, DII, DIII from Nav1.5α, DIV from Nav1.7α; also called huNav157 chimera 5
Description: as §1, §2

huNav157chim7 + β1-β2-β3 = biological target: T10, huNav157chim7 + β1-β2-β3 (human); assay: FACS, transiently transfected HEK293T cells
T10 construct: DI, DIII, DIV from Nav1.5α, DII from Nav1.7α; also called huNav157 chimera 7
Description: as §1, §2

[13] = biological target: T11, huNav157chim12 + β1-β2-β3 (human, UniProt Q15858 1-1988; A5A6L6 19-218; O60939 30-215; Q2KI11 23-215); assay: FACS, transiently transfected HEK293T cells
T11 construct: DI S5-S6 from Nav1.5α, rest Nav1.7α; also called huNav157 chimera 12
Description: as §1, §2

huNav157chim4 + β1-β2-β3 = biological target: T12, huNav157chim4 + β1-β2-β3 (human, UniProt Q15858 44-1988; A5A6L6 19-218; O60939 30-215; Q2KI11 23-215); assay: FACS, transiently transfected HEK293T cells
T12 construct: DII, DIII, DIV from Nav1.7α, DI from Nav1.5α; also called huNav157 chimera 4
Description: as §1, §2

huNav157chim1 + β1-β2-β3 = biological target: T13, huNav157chim1 + β1-β2-β3 (human, UniProt Q15858 1-1962; A5A6L6 19-218; O60939 30-215; Q2KI11 23-215); assay: FACS, transiently transfected HEK293T cells
T13 construct: DI, DII, DIII from Nav1.7α, DIV from Nav1.5α; fused by P2A to β1-β2-β3; also called huNav157 chimera 1
Description: as §1, §2

[14] = biological target: T14, huNav1.7α(V331M) + β1-β2-β3 (human); assay: binding FACS, CHO FlpIn cells
T14 construct: polyprotein as encoded; the entry already carries V331M; also called huNav1.7(V331M)-beta1-beta2-beta3
Method in brief: (§3)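 Flow cytometry binding assay on stable CHO FlpIn cell lines expressing Nav1.7α (human wild type, single DI S5-S6 point variants, or rhesus) with β1-β2-β3. Cells in FACS buffer (PBS, 10% FBS, NaN₃) were plated at 1×10^5 cells/well in 96-well V-bottom plates. FLAG3-tagged ISVDs were added for 30 minutes at 4° C and detected with murine anti-Flag. Dead cells were excluded using 1 μg/mL propidium iodide, and EC50 was determined.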

[15] = biological target: T15, huNav1.7α(E281V) + β1-β2-β3 (human); assay: binding FACS, CHO FlpIn cells
T15 construct: polyprotein as encoded; the entry already carries E281V; also called huNav1.7(E281V)-beta1-beta2-beta3
Method in brief: as §3

[16] = biological target: T16, huNav1.7α(R277Q) + β1-β2-β3 (human); assay: binding FACS, CHO FlpIn cells
T16 construct: polyprotein as encoded; the entry already carries R277Q; also called huNav1.7(R277Q)-beta1-beta2-beta3
Method in brief: as §3

huNav1.7α + β1-β2-β3 [17] = biological target: T7, huNav1.7α + β1-β2-β3; assay: binding FACS, CHO FlpIn cells
Method in brief: as §3

[18] = biological target: T17, huNav1.7α(F276V) + β1-β2-β3 (human, UniProt Q15858 1-1988; A5A6L6 19-218; O60939 30-215; Q2KI11 23-215); assay: binding FACS, CHO FlpIn cells
T17 construct: polyprotein as encoded, P2A sites liberate the subunits; the entry already carries F276V; also called huNav1.7(F276V)-beta1-beta2-beta3
Method in brief: as §3

B1: F010301656 (VHH)
VHH: EVQLVESGGGLAQPGGSLRLSCAASGPVFNINRMAWYRRAPGKQRELVAYVTPTGDISYTDSVKGRFTISRDGSKRWSLQMNSLTPEDTAVYYCRALLQPDSYSNTRTYWGQGTLVTVSS
notes: also called F0103387G04(K33R, S50Y, S56D, N93R)-FLAG3-HIS6
QPatch electrophysiology IC50 [M], HEK cells (huNav1.7α + β1 [1]): 1.8e-08 M | QPatch electrophysiology IC50 [M], HEK cells (rhNav1.7α + β1-β2-β3 [2]): 6e-09 M | IC50 (rhNav1.7α + β1-β2-β3 [3]): 16 nM | IC50 (huNav1.7α + β1-β2-β3 [4]): 39 nM | Human SA ratio (rhNav1.7α + β1-β2-β3 [5]): 1 | Human SA ratio (huNav1.7α + β1-β2-β3 [6]): 1 | IC50 (rhNav1.7α + β1-β2-β3 [7]): 14 nM | IC50 (huNav1.7α + β1-β2-β3 [8]): 37 nM | EC50 (huNav1.7α): 4.9 nM | EC50 (huNav1.7α + β1 [9]): 4.2 nM | Qpatch IC50 [M], HEK cells (huNav1.7α + β1 [10]): 1.8e-08 M | Qpatch IC50 [M], HEK cells (rhNav1.7α + β1-β2-β3 [11]): 6e-09 M

B2: F010302383 (VHH)
VHH: EVQLVESGGGVVQPGGSLRLSCAASGPVFNINRMAWYRQAPGKQRELVAYVTPTGDISYADSVKGRFTISRGGSKRVYLQMNSLRPEDTALYYCRALLQPSSYSGTRTYWGQGTLVTVSS
notes: also called F0103387G04(L11V, A12V, K33R, R39Q, S50Y, S56D, T60A, D72G, W78V, S79Y, T83R, V89L, N93R, D99S, N100cG)+FLAG3-HIS6
fold improved binding vs F0103387G04 (rhNav1.7α+β1-β2-β3): 20 fold | fold improved binding vs F0103387G04 (huNav1.7α+β1-β2-β3): 2 fold

B3: F0103275B05 (VHH)
VHH: EVQLVESGGGLVQPGGSLRLSCAASGSIFNINSMAWYRRAPGKQRELVASSTNGGSTNYADSVKGRFTISRDNAKRVYLQMNSLTPEDTAVYYCNALLQPSIYDISRTYWGQGTLVTVSS
notes: entry includes the FLAG-HIS6 tag; also called F0103275B05 (parental)-FLAG-HIS6
IC50 (huNav1.7α + β1-β2-β3 [12]): 98 nM | binding result (huNav157chim6 + β1-β2-β3): no binding (tested: 1 µM) | binding result (huNav157chim5 + β1-β2-β3): no binding (tested: 1 µM) | binding result (huNav157chim7 + β1-β2-β3): no binding (tested: 1 µM) | binding result [13]: no binding (tested: 1 µM) | binding result (huNav157chim4 + β1-β2-β3): no binding (tested: 1 µM) | binding result (huNav157chim1 + β1-β2-β3): no binding (tested: 1 µM) | EC50 [14]: 21 nM | EC50 [15]: 24 nM | EC50 [16]: 25 nM | EC50 (huNav1.7α + β1-β2-β3 [17]): 30 nM | EC50 [18]: 26 nM

Reference: US20240002497A1 (Merck Sharp & Dohme, published 2024)
